Numbered stars: 1 amine (or outer) side, 2 acyl side, 3 side chain; on linkers, the order of the positions; unused ones are H or OH. * marks the point of attachment. C20 diacid = O=C(O)CCCCCCCCCCCCCCCCCCC(=O)*; C18 diacid = O=C(O)CCCCCCCCCCCCCCCCC(=O)*; C16 diacid = O=C(O)CCCCCCCCCCCCCCC(=O)*; γGlu = O=C(O)[C@H](CCC(=O)[*:2])N[*:1]
What was measured:
[1] = molecular target: T1, human amylin 3(a) receptor (human calcitonin receptor co-expressed with RAMP-3) (human, UniProt P30988 25-474; O60896 24-148, limits assumed); test: cell-based or functional assay
T1 sequence (looked up) 1: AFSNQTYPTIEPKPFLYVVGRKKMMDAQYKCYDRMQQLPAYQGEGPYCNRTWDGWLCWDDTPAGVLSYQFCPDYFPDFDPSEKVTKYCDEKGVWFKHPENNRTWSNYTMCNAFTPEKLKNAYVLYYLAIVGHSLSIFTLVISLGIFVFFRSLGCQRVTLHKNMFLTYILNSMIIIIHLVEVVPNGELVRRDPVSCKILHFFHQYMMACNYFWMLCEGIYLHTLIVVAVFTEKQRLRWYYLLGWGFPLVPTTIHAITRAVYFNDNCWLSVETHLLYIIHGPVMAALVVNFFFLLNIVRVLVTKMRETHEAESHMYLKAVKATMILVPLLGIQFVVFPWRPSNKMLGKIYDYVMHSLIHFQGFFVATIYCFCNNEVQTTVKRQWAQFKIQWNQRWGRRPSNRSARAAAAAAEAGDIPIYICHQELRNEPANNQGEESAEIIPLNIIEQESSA
T1 sequence (looked up) 2: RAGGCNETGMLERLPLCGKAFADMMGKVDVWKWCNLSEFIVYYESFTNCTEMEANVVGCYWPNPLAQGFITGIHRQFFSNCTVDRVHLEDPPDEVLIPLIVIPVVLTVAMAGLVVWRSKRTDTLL

[2] = molecular target: T2, human calcitonin receptor (human, UniProt P30988 25-474); test: cell-based or functional assay
T2 sequence (looked up): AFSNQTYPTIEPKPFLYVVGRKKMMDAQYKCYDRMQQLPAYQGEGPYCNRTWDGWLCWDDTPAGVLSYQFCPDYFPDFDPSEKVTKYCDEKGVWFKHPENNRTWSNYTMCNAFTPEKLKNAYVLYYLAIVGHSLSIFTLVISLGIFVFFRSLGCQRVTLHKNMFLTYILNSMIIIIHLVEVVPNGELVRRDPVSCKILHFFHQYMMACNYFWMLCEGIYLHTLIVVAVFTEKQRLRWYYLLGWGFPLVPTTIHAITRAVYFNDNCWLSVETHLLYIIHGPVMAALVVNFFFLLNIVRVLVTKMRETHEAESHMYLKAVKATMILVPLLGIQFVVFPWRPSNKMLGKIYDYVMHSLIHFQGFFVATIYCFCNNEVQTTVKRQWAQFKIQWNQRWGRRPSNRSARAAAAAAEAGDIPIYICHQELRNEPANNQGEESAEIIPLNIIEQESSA

hAmylin-R funct. EC50 (pM) [1] [pM] | hCTR funct. EC50 (pM) [2] [pM] | Binder
8 | 7 | {C18 diacid}-EASELSTAVLGRLSAELAELATLPRTETGPESP-NH2 (SMILES CC(C)C[C@H](NC(=O)[C@H](CCC(=O)O)NC(=O)[C@H](C)NC(=O)[C@H](CO)NC(=O)[C@H](CC(C)C)NC(=O)[C@H](CCCNC(=N)N)NC(=O)CNC(=O)[C@H](CC(C)C)NC(=O)[C@@H](NC(=O)[C@H](C)NC(=O)[C@@H](NC(=O)[C@H](CO)NC(=O)[C@H](CC(C)C)NC(=O)[C@H](CCC(=O)O)NC(=O)[C@H](CO)NC(=O)[C@H](C)NC(=O)[C@H](CCC(=O)O)NC(=O)CCCCCCCCCCCCCCCCC(=O)O)[C@@H](C)O)C(C)C)C(=O)N[C@@H](C)C(=O)N[C@@H](CCC(=O)O)C(=O)N[C@@H](CC(C)C)C(=O)N[C@@H](C)C(=O)N[C@H](C(=O)N[C@@H](CC(C)C)C(=O)N1CCC[C@H]1C(=O)N[C@@H](CCCNC(=N)N)C(=O)N[C@H](C(=O)N[C@@H](CCC(=O)O)C(=O)N[C@H](C(=O)NCC(=O)N1CCC[C@H]1C(=O)N[C@@H](CCC(=O)O)C(=O)N[C@@H](CO)C(=O)N1CCC[C@H]1C(N)=O)[C@@H](C)O)[C@@H](C)O)[C@@H](C)O) [[N-terminal(C18 diacid), 9V, 18A]mimylin]
14 | 7 | {C18 diacid}-EASPLSTAVLGRLSAELHELATLPRTETGPESP-NH2 (SMILES CC(C)C[C@H](NC(=O)[C@H](CCC(=O)O)NC(=O)[C@H](Cc1c[nH]cn1)NC(=O)[C@H](CC(C)C)NC(=O)[C@H](CCC(=O)O)NC(=O)[C@H](C)NC(=O)[C@H](CO)NC(=O)[C@H](CC(C)C)NC(=O)[C@H](CCCNC(=N)N)NC(=O)CNC(=O)[C@H](CC(C)C)NC(=O)[C@@H](NC(=O)[C@H](C)NC(=O)[C@@H](NC(=O)[C@H](CO)NC(=O)[C@H](CC(C)C)NC(=O)[C@@H]1CCCN1C(=O)[C@H](CO)NC(=O)[C@H](C)NC(=O)[C@H](CCC(=O)O)NC(=O)CCCCCCCCCCCCCCCCC(=O)O)[C@@H](C)O)C(C)C)C(=O)N[C@@H](C)C(=O)N[C@H](C(=O)N[C@@H](CC(C)C)C(=O)N1CCC[C@H]1C(=O)N[C@@H](CCCNC(=N)N)C(=O)N[C@H](C(=O)N[C@@H](CCC(=O)O)C(=O)N[C@H](C(=O)NCC(=O)N1CCC[C@H]1C(=O)N[C@@H](CCC(=O)O)C(=O)N[C@@H](CO)C(=O)N1CCC[C@H]1C(N)=O)[C@@H](C)O)[C@@H](C)O)[C@@H](C)O) [[N-terminal(C18 diacid), 4P, 9V]mimylin]
31 | 12 | {C18 diacid}-EASELSTAVLGRLSAELHELATLPRTEPGPESP-NH2 (SMILES CC(C)C[C@H](NC(=O)[C@H](CCC(=O)O)NC(=O)[C@H](Cc1c[nH]cn1)NC(=O)[C@H](CC(C)C)NC(=O)[C@H](CCC(=O)O)NC(=O)[C@H](C)NC(=O)[C@H](CO)NC(=O)[C@H](CC(C)C)NC(=O)[C@H](CCCNC(=N)N)NC(=O)CNC(=O)[C@H](CC(C)C)NC(=O)[C@@H](NC(=O)[C@H](C)NC(=O)[C@@H](NC(=O)[C@H](CO)NC(=O)[C@H](CC(C)C)NC(=O)[C@H](CCC(=O)O)NC(=O)[C@H](CO)NC(=O)[C@H](C)NC(=O)[C@H](CCC(=O)O)NC(=O)CCCCCCCCCCCCCCCCC(=O)O)[C@@H](C)O)C(C)C)C(=O)N[C@@H](C)C(=O)N[C@H](C(=O)N[C@@H](CC(C)C)C(=O)N1CCC[C@H]1C(=O)N[C@@H](CCCNC(=N)N)C(=O)N[C@H](C(=O)N[C@@H](CCC(=O)O)C(=O)N1CCC[C@H]1C(=O)NCC(=O)N1CCC[C@H]1C(=O)N[C@@H](CCC(=O)O)C(=O)N[C@@H](CO)C(=O)N1CCC[C@H]1C(N)=O)[C@@H](C)O)[C@@H](C)O) [[N-terminal(C18 diacid), 9V, 28P]mimylin]
23 | 54 | {C18 diacid}-EASEVSTAVLGRLSAELHEVATLPRTETGPESP-NH2 (SMILES CC(C)C[C@H](NC(=O)[C@H](CCCNC(=N)N)NC(=O)CNC(=O)[C@H](CC(C)C)NC(=O)[C@@H](NC(=O)[C@H](C)NC(=O)[C@@H](NC(=O)[C@H](CO)NC(=O)[C@@H](NC(=O)[C@H](CCC(=O)O)NC(=O)[C@H](CO)NC(=O)[C@H](C)NC(=O)[C@H](CCC(=O)O)NC(=O)CCCCCCCCCCCCCCCCC(=O)O)C(C)C)[C@@H](C)O)C(C)C)C(=O)N[C@@H](CO)C(=O)N[C@@H](C)C(=O)N[C@@H](CCC(=O)O)C(=O)N[C@@H](CC(C)C)C(=O)N[C@@H](Cc1c[nH]cn1)C(=O)N[C@@H](CCC(=O)O)C(=O)N[C@H](C(=O)N[C@@H](C)C(=O)N[C@H](C(=O)N[C@@H](CC(C)C)C(=O)N1CCC[C@H]1C(=O)N[C@@H](CCCNC(=N)N)C(=O)N[C@H](C(=O)N[C@@H](CCC(=O)O)C(=O)N[C@H](C(=O)NCC(=O)N1CCC[C@H]1C(=O)N[C@@H](CCC(=O)O)C(=O)N[C@@H](CO)C(=O)N1CCC[C@H]1C(N)=O)[C@@H](C)O)[C@@H](C)O)[C@@H](C)O)C(C)C) [[N-terminal(C18 diacid), 5V, 9V, 20V]mimylin]
14 | 6 | {C18 diacid}-EASELSTAVLGRLSAELHELATLPPTETGPESP-NH2 (SMILES CC(C)C[C@H](NC(=O)[C@H](CCC(=O)O)NC(=O)[C@H](Cc1c[nH]cn1)NC(=O)[C@H](CC(C)C)NC(=O)[C@H](CCC(=O)O)NC(=O)[C@H](C)NC(=O)[C@H](CO)NC(=O)[C@H](CC(C)C)NC(=O)[C@H](CCCNC(=N)N)NC(=O)CNC(=O)[C@H](CC(C)C)NC(=O)[C@@H](NC(=O)[C@H](C)NC(=O)[C@@H](NC(=O)[C@H](CO)NC(=O)[C@H](CC(C)C)NC(=O)[C@H](CCC(=O)O)NC(=O)[C@H](CO)NC(=O)[C@H](C)NC(=O)[C@H](CCC(=O)O)NC(=O)CCCCCCCCCCCCCCCCC(=O)O)[C@@H](C)O)C(C)C)C(=O)N[C@@H](C)C(=O)N[C@H](C(=O)N[C@@H](CC(C)C)C(=O)N1CCC[C@H]1C(=O)N1CCC[C@H]1C(=O)N[C@H](C(=O)N[C@@H](CCC(=O)O)C(=O)N[C@H](C(=O)NCC(=O)N1CCC[C@H]1C(=O)N[C@@H](CCC(=O)O)C(=O)N[C@@H](CO)C(=O)N1CCC[C@H]1C(N)=O)[C@@H](C)O)[C@@H](C)O)[C@@H](C)O) [[N-terminal(C18 diacid), 9V, 25P]mimylin]
12 | 14 | {C20 diacid-γGlu}-EASELSTAALGRLSAELHELATYPRTETGSGSP-NH2 (SMILES CC(C)C[C@H](NC(=O)[C@H](C)NC(=O)[C@H](C)NC(=O)[C@@H](NC(=O)[C@H](CO)NC(=O)[C@H](CC(C)C)NC(=O)[C@H](CCC(=O)O)NC(=O)[C@H](CO)NC(=O)[C@H](C)NC(=O)[C@H](CCC(=O)O)NC(=O)CC[C@H](NC(=O)CCCCCCCCCCCCCCCCCCC(=O)O)C(=O)O)[C@@H](C)O)C(=O)NCC(=O)N[C@@H](CCCNC(=N)N)C(=O)N[C@@H](CC(C)C)C(=O)N[C@@H](CO)C(=O)N[C@@H](C)C(=O)N[C@@H](CCC(=O)O)C(=O)N[C@@H](CC(C)C)C(=O)N[C@@H](Cc1c[nH]cn1)C(=O)N[C@@H](CCC(=O)O)C(=O)N[C@@H](CC(C)C)C(=O)N[C@@H](C)C(=O)N[C@H](C(=O)N[C@@H](Cc1ccc(O)cc1)C(=O)N1CCC[C@H]1C(=O)N[C@@H](CCCNC(=N)N)C(=O)N[C@H](C(=O)N[C@@H](CCC(=O)O)C(=O)N[C@H](C(=O)NCC(=O)N[C@@H](CO)C(=O)NCC(=O)N[C@@H](CO)C(=O)N1CCC[C@H]1C(N)=O)[C@@H](C)O)[C@@H](C)O)[C@@H](C)O) [[N-terminal(C20 diacid-gGlu), 23Y, 30S, 31G]mimylin]
13 | 8 | {C18 diacid-γGlu}-ASELSTAALGRLSAELHELATLPRTETGSPSP-NH2 (SMILES CC(C)C[C@H](NC(=O)[C@H](C)NC(=O)[C@H](C)NC(=O)[C@@H](NC(=O)[C@H](CO)NC(=O)[C@H](CC(C)C)NC(=O)[C@H](CCC(=O)O)NC(=O)[C@H](CO)NC(=O)[C@H](C)NC(=O)CC[C@H](NC(=O)CCCCCCCCCCCCCCCCC(=O)O)C(=O)O)[C@@H](C)O)C(=O)NCC(=O)N[C@@H](CCCNC(=N)N)C(=O)N[C@@H](CC(C)C)C(=O)N[C@@H](CO)C(=O)N[C@@H](C)C(=O)N[C@@H](CCC(=O)O)C(=O)N[C@@H](CC(C)C)C(=O)N[C@@H](Cc1c[nH]cn1)C(=O)N[C@@H](CCC(=O)O)C(=O)N[C@@H](CC(C)C)C(=O)N[C@@H](C)C(=O)N[C@H](C(=O)N[C@@H](CC(C)C)C(=O)N1CCC[C@H]1C(=O)N[C@@H](CCCNC(=N)N)C(=O)N[C@H](C(=O)N[C@@H](CCC(=O)O)C(=O)N[C@H](C(=O)NCC(=O)N[C@@H](CO)C(=O)N1CCC[C@H]1C(=O)N[C@@H](CO)C(=O)N1CCC[C@H]1C(N)=O)[C@@H](C)O)[C@@H](C)O)[C@@H](C)O) [[N-terminal(C18 diacid-gGlu), des1, 30S, 31P]mimylin]
8 | 4 | {C16 diacid}-EASELSTAALGRLSAELHELATLPRTETGPESP-NH2 [[N-terminal(C16 diacid)]mimylin]
